{
  "source": "the DeepSol protein solubility set",
  "experiment": "soluble on expression in E. coli; label from the status in PepcDB or PDB records",
  "data": [
    {"sequence": "MEQHPIKINKVQIRNLQIEDYAQLSQSFTRVYSDGSDVFWTHAQIKKLISIFPEGQIVTVVDDKIVGCALSIILDYDKVKNDHTYAQVTGKETFNTHNPEGNILYGIEVFIHPGYRGLRLARRMYEYRKELCETLNLKAIMFGGRIPNYHKYADKMRPKEYIARVRQREIYDPVLTFQLSNDFHVRKVMTNYLPNDEESKHYACLLQWDNIYYQPPTQEYINPKTTVRVGLVQWQMRSYKTLDDLFEQVEFFVDAVSDYKSDFVLFPEYFNAPLMSKFNDKGESQAIRGLAKYTDEIRDRFINLAISYNINIITGSMPYVKEDGLLYNVGFLCRRDGTYEMYEKMHVTPDEIKSWGLSGGKLLQTFDTDCAKVGVLICYDVEFPELSRLMADQGMQILFVPFLTDTQNAYSRVRVCAQARAIENECFVVIAGCVGNLPRVHNMDIQYAQSGVFTPCDFAFPTDGKRAEATPNTEMILVSDVDLDLLNALHTYGSVRNLKDRRNDVYEVRFKK", "values": [
      {"measurement": "soluble on expression in E. coli", "result": "not soluble"}
    ]},
    {"sequence": "MGSDKIHHHHHHMLLKPDQRLKLDDTDDNLFYAYPRFVTHVDEGFIQQLTDLYRERLQPNTRILDMMSSWVSHLPEEIKFAHVEGHGLNAEELGRNPQLNHYFVQNLNENPGLPLPDQEFDAVLNCVSVQYLQYPEAVFSEIHRILKPGGVAIISFSNRMFYQKAIQAWRDASEPGRLELVKRYFASVPGFSTPEIIARKSTAPNFLQWLGAPGGDPFYAAIAHREGFA", "values": [
      {"measurement": "soluble on expression in E. coli", "result": "not soluble"}
    ]},
    {"sequence": "MAHHHHHHMSRLMPHYSKGKTAFLCVDLQEAFSKRIENFANCVFVANRLARLHEVVPENTKYIVTEHYPKGLGRIVPEITLPKTAHLIEKTRFSCVVPQVEELLEDVDNAVVFGIEGHACILQTVADLLDMNKRVFLPKDGLGSQKKTDFKAAIKLMSSWGPNCEITTSESILLQMTKDAMDPNFKRISKLLKEEPPIPL", "values": [
      {"measurement": "soluble on expression in E. coli", "result": "soluble"}
    ]},
    {"sequence": "EAVIATDEMNVRSGPGLSYGITAEVKKGERYPILKEDGDWVQIQLGSGEKGWVVSWLITKEDQASTSSSGSSDTVTSTDPDLRMRSGPGTSYEVIGKFPQGSQASVIDKDSGWIKISYHSATGWVSSEYVTSGGSSSASDESDQTEDSGASTTGTVGVSSLNVRASASHDAAIITKLDRGTKLTVLNEKNGWAHIEVNGLKGWVASHYLLTSSVPADDSANAGSSSSAKKAYIMYGGTNLRSDASTSASIVERAAKGDSYTITGSKGSWYEIKLDNGQTAYVANWVVQTSKSAEEAGEPPVSDSPSGNGSLNNKTIIVDPGHGGKDSGTIGYSGKFEKNLTIKTAKLLASKLRSAGADVYVTRQDDTFVSLQSRVSTSHYRNADAFISIHYDSYADTSTRGSTAYYYSPAKDQELASDVHSEVVKRSSIPDRGVLFGDYYVLRENRQPAMLYELGYVSHPQEEAIVHSNSYQEKVTDGIESGLEKYF", "values": [
      {"measurement": "soluble on expression in E. coli", "result": "not soluble"}
    ]},
    {"sequence": "MAHHHHHHMRSLPNIIVTGVPGVGKTTLCEELVEVINKELQEGQQAEPANQMKHLNLSKVIKEERLYEEFDDQLDATIYSNDMVNEKMEKLKLENGGYIIDFHDVDFLEQKELIDHIFLLTTSTNKLYERLEKRNYAKEKIKNNIECEIFQVIKEDILTFYNDPSIFDELGNNDMEQYESNLQLIKGWVLSWAKSGEALPR", "values": [
      {"measurement": "soluble on expression in E. coli", "result": "soluble"}
    ]},
    {"sequence": "ELISRYPERYCRASSGRCTFAFHPAPEKSFNRGFTNLLLSGKRDTNTLITPESNKSKGAYIGCVTAVNRDKVSIRLRPDNTGAKPSLANGDGLYLLHPDGNMSGTRINVVLPDGSIQVDNPAGIVSGTNVFRNYDIRFEKALSQDNSAVRLIPVSLTLTDVPDGFSLSIEADCYPSAKATITAAHEPATRFDEEQIRKNLTKLGGTPLEAVSVDIRLSHDYFIPLSLIGRLRRDAVQSFIEKASSMPEREEKPVVQRRISPAASSLQEGEQSLSFLANVANKEAETFYRQMGYTSIAPAFEHSHPQGVPLMFSKHCLRYHLGYCPTLQHKESPYREPYYLIHGETRLRLRFDCQHCQMLVYHDSEGIKQT", "values": [
      {"measurement": "soluble on expression in E. coli", "result": "not soluble"}
    ]},
    {"sequence": "MTWETVIGLEIHVQLNTKSKIFSGASTAFGAEPNAHASVVECALPGVLPVMNREVVEKAIKLGLALDAKINQKNVFDRKNYFYPDLPKGYQISQLDLPIVEHGKLEIVVGDDVKTINVTRAHMEEDAGKSVHEGLNGATGIDLNRAGTPLLEVVSEPEMRSAAEAVAYAKALHSLVTWLDICDGNMAEGSFRVDANVSVRPKGQEEFGTRREIKNLNSFRFLEQAINYEAEAQIEILEDGGKVQQATMLFDPEKGETRVMRLKEDAHDYRYFPDPDLLPVIISDAQMQKAKAEMPELPKEMAARFVADYGVSEYDARLLTASRAQAAYFEEAAKESGQGKLTANWMNGELAAALNKEGMELADSPITAPRLAALVGKIADGTLSSKLAKKAFEAMWAEPEATIAEIIEKHGLQQMTDTGEIEAMVDEVLANNAKAVEQFKSGNEKALNAIVGQVMKASKGKANPAQVQELIKAKLA", "values": [
      {"measurement": "soluble on expression in E. coli", "result": "not soluble"}
    ]},
    {"sequence": "MKKQLCMIALVGATAFGTTGTSWSLDGPPPPEPPPMGKGQEHFLERMASVLKLTDAQQAQIEALISTDAEQNAPLHRQLAENERALREATTAASLDEATVRALAATKGNLMTEMIVSRAKLRNAINAILTAEQRELADRLDPLKYGPPRPRPDRPGMELEHHHHHH", "values": [
      {"measurement": "soluble on expression in E. coli", "result": "soluble"}
    ]},
    {"sequence": "MGSDKIHHHHHHMATYNYPEFGAGLWHFANYIDRYAVDGYGPALSTIDQINAAKEVGELSYVDLPYPFTPGVTLSEVKDALKDAGLKAIGITPEIYLQKWSRGAFTNPDPAARAAAFELMHESAGIVRELGANYVKVWPGQDGWDYPFQVSHKNLWKLAVDGMRDLAGANPDVKFAIEYKPREPRVKMTWDSAARTLLGIEDIGLDNVGVLLDFGHALYGGESPADSAQLIIDRGRLFGMDVNDNLRGWDDDLVVGTVHMTEIFEFFYVLKINNWQGVWQLDQFPFRENHVEAAQLSIRFLKHIYRALDKLDIPALQAAQEAQNPLQAQRIVQDALLSSITVSE", "values": [
      {"measurement": "soluble on expression in E. coli", "result": "not soluble"}
    ]},
    {"sequence": "MSLKINVADFHGTYLENPRTVNNFSLTGTDQKVFDNSSLQGRWTLVFFGFTNCGYLCPTTMAELGKMYRILEKKGVKNLPQVVMISIDPQRDSLDKLGSYVTSFHKSFYGARGEEDSIKSMTHEMGIAYAKINSKESSEPENYDIQHSGAVMLFNPQGELNAFFTTPHHADLLAKDYVLLVSEGHHHHHH", "values": [
      {"measurement": "soluble on expression in E. coli", "result": "soluble"}
    ]},
    {"sequence": "MAGVAEFNDKGELLLPKNYREWVMVGTQVTPNELNDGKAPFTEIRTVYVDPESYAHWKKTGEFRDGTVTVKELVSVGDRKGPGSGNGYFMGDYIGLEASVKDSQRFANEPGNWAFYIFYVPDTPLVAAAKNLPTAECAACHKENAKTDMVFTQFYPVLRAAKATGESGVVAPKKLAAALEHHHHHH", "values": [
      {"measurement": "soluble on expression in E. coli", "result": "soluble"}
    ]},
    {"sequence": "MNSRSTAEITDYLNEKITKKDALELFSLPIHAVGRIADEIRKVKCGDLVTFVNDTNINYTNICLSKCRFCAFYAREKGYVLSHEEILRKVGYAVKMGATQIMLQGGMNPDLGLEWFEELFRKIKARFSSVHIHSLSPPEIVFLAKLERSSIREVLDRLKAAGLDSLPGGGAEILVDSVRRKISPNKCSSDEWLRVMETAHSLNMPTTATMMFGHVESDGDIVEHLIKIRELQEKTGGFTAFIPWTFQPGNTELYAEIKRPVSPLRYLQVLAISRIVLNNFRNIQASWLTQGFEIATLSLFFGANDFGGTMLEENVVRATGKDFRPAKIEEIVKAVKAVGRPVALRDTYYNILEWF", "values": [
      {"measurement": "soluble on expression in E. coli", "result": "not soluble"}
    ]},
    {"sequence": "MPDFKIVISDPQSVEPKRIKVKVKASDQVKSITGEKDGKAVPQAKVNEKTKQLLNVDTLLTLEITKQEGDKKVKVKGHFKVDVDNSVPDNEVWISKTMAEKFGAEDFEAFAYRTKTLQISVDQNKATNLVGLKIGDVFEANQLIGLPVKLKITGGSDNSGFPMRFDVIGAAKRKILLSGPPGFYPNENGERRRKTIRGNTISQEIVQINTIIVRLEHHHHHH", "values": [
      {"measurement": "soluble on expression in E. coli", "result": "soluble"}
    ]},
    {"sequence": "MAVLAVVLLLACLERAVAQTFGCSNTKINDQARKMFYDAHNDARRSMAKGLEPNKCGLLSGGKNVYELNWDCEMEAKAQEWADGCPSSFQTFDPTWGQNYATYMGSIADPLPYASMAVNGWWSEIRTVGLTDPDNKYTNSAMFRFANMANGKASAFGCAYALCAGKLSINCIYNKIGYMTNAIIYEKGDACTSDAECTTYSDSQCKNGLCYKAPQAPVVETFTMCPSVTDQSDQARQNFLDTHNKLRTSLAKGLEADGIAAGAFAPMAKQMPKLKYSCTVEANARTWAKGCLYQHSTSAQRPGLGENLYMISINNMPKIQTAEDSSKAWWSELKDFGVGSDNILTQAVFDRGVGHYTQMAWEGTTEIGCFVENCPTFTYSVCQYGPAGNYMNQLIYTKGSPCTADADCPGTQTCSVAEALCVIP", "values": [
      {"measurement": "soluble on expression in E. coli", "result": "not soluble"}
    ]}
  ]
}
